Laboratory results taken from the supplement of paper PMC9112550, “Optimization of the antimicrobial peptide Bac7 by deep mutational scanning” (BMC Biology, 2022).

test system: Escherichia coli TOP10; experiment: shrunken log2 fold change of peptide-encoding DNA abundance (4.5 h post-induction vs induction); higher = less antimicrobial activity (less host growth inhibition); conditions: time post-induction: 4.5 h; library: site-saturation at positions 5, 18, 19, 20
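Also: peptides expressed intracellularly from a pBAD plasmid library in pooled LB shake-flask culture, induced with 0.3% L-arabinose, DNA abundance read by NGS, three biological replicates, DESeq2 with apeglm shrinkage.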

| Sequence | shrunken log2 fold change |
| --- | --- |
| RRIRHRPPRLPRPRPRPANQPRP | -0.0712 |
| RRIRARPPRLPRPRPRPRTVPRP | 0.457 |
| RRIRFRPPRLPRPRPRPPLDPRP | 0.461 |
| RRIRTRPPRLPRPRPRPHNWPRP | 0.0661 |
| RRIRMRPPRLPRPRPRPNHWPRP | 0.14 |
| RRIRCRPPRLPRPRPRPWSMPRP | -0.308 |
| RRIRWRPPRLPRPRPRPICRPRP | -0.0371 |
| RRIRSRPPRLPRPRPRPGDAPRP | 0.298 |
| RRIRHRPPRLPRPRPRPEQTPRP | -0.01 |
| RRIRDRPPRLPRPRPRPTLHPRP | 0.605 |
| RRIRERPPRLPRPRPRPDVLPRP | -0.138 |
| RRIRQRPPRLPRPRPRPGYPPRP | -0.181 |
| RRIRIRPPRLPRPRPRPDICPRP | -0.0265 |
| RRIRRRPPRLPRPRPRPMCNPRP | 0.0275 |
| RRIRVRPPRLPRPRPRPPVVPRP | -0.0362 |
| RRIRYRPPRLPRPRPRPNIVPRP | -0.224 |
| RRIRLRPPRLPRPRPRPMDTPRP | -0.323 |
| RRIRIRPPRLPRPRPRPHTFPRP | -1.53 |
| RRIRPRPPRLPRPRPRPGIGPRP | 0.208 |
| RRIRSRPPRLPRPRPRPQIRPRP | 0.267 |
| RRIRPRPPRLPRPRPRPAIKPRP | -0.339 |
| RRIRARPPRLPRPRPRPDHFPRP | -0.148 |
| RRIRKRPPRLPRPRPRPIQQPRP | 0.25 |
| RRIRMRPPRLPRPRPRPRGMPRP | 0.861 |
| RRIRIRPPRLPRPRPRPDTRPRP | -0.293 |

| Sequence | shrunken log2 fold change |
| --- | --- |
| RRIRARPPRLPRPRPRPRYGPRP | -0.0744 |
| RRIRMRPPRLPRPRPRPKLPPRP | 1.13 |
| RRIRNRPPRLPRPRPRPCCQPRP | -0.6 |
| RRIRTRPPRLPRPRPRPSVAPRP | 0.00143 |
| RRIRPRPPRLPRPRPRPCMRPRP | -0.239 |
| RRIRIRPPRLPRPRPRPVTVPRP | 0.129 |
| RRIRQRPPRLPRPRPRPPHIPRP | 0.213 |
| RRIRRRPPRLPRPRPRPDASPRP | 0.0354 |
| RRIRKRPPRLPRPRPRPWDKPRP | -0.0876 |
| RRIRCRPPRLPRPRPRPEIQPRP | 0.141 |
| RRIRCRPPRLPRPRPRPKIWPRP | 0.121 |
| RRIRYRPPRLPRPRPRPYCYPRP | -1.12 |
| RRIRWRPPRLPRPRPRPIWAPRP | 0.00581 |
| RRIRVRPPRLPRPRPRPYCRPRP | -0.213 |
| RRIRERPPRLPRPRPRPQDMPRP | -0.492 |
| RRIRYRPPRLPRPRPRPAWYPRP | -0.687 |
| RRIRPRPPRLPRPRPRPGVIPRP | -0.321 |
| RRIRSRPPRLPRPRPRPTGPPRP | -0.0769 |
| RRIRHRPPRLPRPRPRPKTDPRP | -0.434 |
| RRIRVRPPRLPRPRPRPFNAPRP | -0.563 |
| RRIRIRPPRLPRPRPRPKRWPRP | -0.0451 |
| RRIRPRPPRLPRPRPRPQYTPRP | -0.813 |
| RRIRERPPRLPRPRPRPKMMPRP | -0.153 |
| RRIRSRPPRLPRPRPRPTFWPRP | 0.536 |
| RRIRWRPPRLPRPRPRPVPDPRP | -0.101 |

| Sequence | shrunken log2 fold change |
| --- | --- |
| RRIRSRPPRLPRPRPRPQSIPRP | -0.263 |
| RRIRARPPRLPRPRPRPVRIPRP | 0.00598 |
| RRIRERPPRLPRPRPRPTDNPRP | -0.841 |
| RRIRERPPRLPRPRPRPLHGPRP | -0.212 |
| RRIRERPPRLPRPRPRPFTHPRP | -0.0134 |
| RRIRGRPPRLPRPRPRPSISPRP | 0.0894 |
| RRIRPRPPRLPRPRPRPWHNPRP | -0.809 |
| RRIRDRPPRLPRPRPRPMHNPRP | -0.696 |
| RRIRIRPPRLPRPRPRPTKIPRP | -0.158 |
| RRIRIRPPRLPRPRPRPSFTPRP | -0.573 |
| RRIRKRPPRLPRPRPRPITRPRP | 0.132 |
| RRIRHRPPRLPRPRPRPQHRPRP | -0.355 |
| RRIRNRPPRLPRPRPRPFHQPRP | 0.151 |
| RRIRWRPPRLPRPRPRPREKPRP | 1.16 |
| RRIRIRPPRLPRPRPRPPSEPRP | -0.118 |
| RRIRRRPPRLPRPRPRPEHIPRP | -0.13 |
| RRIRARPPRLPRPRPRPVAWPRP | 0.474 |
| RRIRPRPPRLPRPRPRPDYNPRP | -0.553 |
| RRIRPRPPRLPRPRPRPSMLPRP | -0.186 |
| RRIRVRPPRLPRPRPRPKDFPRP | 0.123 |
| RRIRWRPPRLPRPRPRPDILPRP | 0.0776 |
| RRIRGRPPRLPRPRPRPDQSPRP | 0.777 |
| RRIRDRPPRLPRPRPRPGPVPRP | 0.545 |
| RRIRKRPPRLPRPRPRPSCCPRP | 0.269 |
| RRIRRRPPRLPRPRPRPCKKPRP | 0.0185 |
